Patent publication US20110008258A1, “METHODS RELATING TO BREATHING DISORDERS” (SAMSARA MEDICIN AB, priority 2007, published 2011)

Tests used:
mPGES-1 enzyme = molecular target: T1, mPGES-1 enzyme (Homo sapiens, UniProt O14684); details: reported in refs 75-77; read-out: IC50, inhibition of mPGES-1; cited from earlier work
T1 sequence (O14684 1-152): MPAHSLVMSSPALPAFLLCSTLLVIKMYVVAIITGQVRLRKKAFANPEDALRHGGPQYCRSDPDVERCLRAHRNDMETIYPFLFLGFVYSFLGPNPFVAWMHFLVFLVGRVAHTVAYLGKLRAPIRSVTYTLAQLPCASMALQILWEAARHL

[1] = tested on: IL-1β-induced respiratory depression; details: cited from earlier work
EP3R^+/+ mice = assay: Flow plethysmography after icv PGE2, EP3R+/+ mice; format: in vivo
Procedure: (§1) A Plexiglas chamber (35 ml) was connected to a highly sensitive direct airflow sensor (0-200 ml/min; TRN3100, Kent Scientific Corporation, Litchfield, Conn., USA). The flow signal was amplified by a four-channel amplifier (P/N 770 S/N 5; SENSElab, Somedic Sales, Hörby, Sweden), converted to digital signal, and recorded at 100 Hz by an online computer using DasyLab software (Datalog GmbH & Co. KG, Mönchengladbach, Germany). Respiratory frequency (fR, breaths/min), tidal volume (VT, μl/breath), and minute ventilation (VE, μl/min) were calculated. Chamber temperature was maintained at 30.1±0.1° C. in accordance with the documented thermoneutral range for neonatal mice by immersing the chamber in a thermostat-controlled water bath (49). As described previously, the chamber was calibrated by repeatedly injecting standardized volumes of air (5-200 μl) with preset precision syringes (Hamilton Bonaduz AG, Switzerland) (6). 95% of gas exchange occurred within 35 s of administration, which was verified by CO2 content analyses (Metek CD-3A and S-3A, PA, USA).
(§2) Respiration was examined using flow plethysmography in 9 d-old C57BL/6 mice (n=38) with variable expression of EP3R. After the administration of sevoflurane anesthesia for approximately 60 s, PGE2 (4 nmol in 2-4 μl aCSF) or vehicle was slowly injected into the lateral ventricle using a thin pulled glass pipette attached to polyeethylene tubing. The mouse was then placed immediately into the plethysmograph chamber. After a 10 min recovery period in normoxia, the mouse was exposed to hyperoxic and anoxic challenge as described above. Animal skin temperature was recorded at baseline and at each subsequent minute using a thermistor temperature probe.
(§3) Periods of calm respiration without movement artefact were selected for analysis. Mean fR, VT, and VE values during normoxia and hyperoxia as well as the anoxic response (i.e., hyperpnea, primary apnea, gasping, secondary apnea, and autoresuscitation) were analyzed as described previously (6, the disclosure of which is expressly incorporated herein by reference). Survival was recorded for all animals. Apnea was defined as cessation of breathing for three respiratory cycles. Regularity of breathing was quantified using the coefficient of variation (C.V.) (i.e., SD divided by mean of breath-by-breath interval during 60 periods).

EP3R^−/− mice [2] = assay: Flow plethysmography after icv PGE2, EP3R−/− mice; format: in vivo
Procedure: as §1, §2, §3

[3] = tested on: brainstem spinal-cord preparations from EP3R^+/+ pups; assay: En bloc brainstem-spinal cord preparation, respiratory activity, EP3R+/+; parameters: species or system mice; details: PGE2 20 μg/l, 2-3 d old EP3R+/+ pups, n=5, reversible
Procedure: (§4) Brainstem-spinal cord preparations were rapidly isolated from 2 d-old C57BL/6 mice with EP3R^+/+ and EP3R^−/− genotypes as described previously (n=11) (50, 51, both of which are expressly incorporated herein by reference). Respiratory-related activity corresponding to the inspiratory rhythm was monitored at the C4 ventral root through a glass suction electrode, recorded (5 kHz), and analyzed offline. Control recordings were performed for at least 20 min before perfusion with aCSF containing PGE2 followed by an aCSF washout period.
(§5) The brainstem was rostrally decerebrated between the cranial nerve VI roots and the lower border of the trapezoid body so that the pons was removed. The preparation was continuously perfused in a 1.5 ml chamber with artificial cerebrospinal fluid (aCSF): 130 mM NaCl, 3.3 mM KCl, 0.8 mM KH2PO4, 0.8 mM CaCl2, 1.0 mM MgCl2, 26 mM NaHCO3, and 30 mM D-glucose at 28° C. (flow rate, 3-4 ml/min). The solution was continuously equilibrated with 95% O2 and 5% CO2 to pH 7.4 (50, 51).

[4] = tested on: brainstem spinal-cord preparations from EP3R^−/− mice; assay: En bloc brainstem-spinal cord preparation, respiratory activity, EP3R−/−; details: PGE2 20 μg/l, n=6
Procedure: as §4, §5

[5] = Procedure: PGE2 and metabolites thereof may persist and may be measured even after more than 72 hours. Half time for PGE2 degradation various considerably pending on the cellular environment. Half-life of PGE2 can vary from a few minutes to several hours. When evaluating PGE2 produced in the body and secreted in urine or other body fluids it is important to also measure its metabolites.
mPGES-1^+/+ mice = assay: Whole-body flow plethysmography after i.p. IL-1β, mPGES-1+/+ mice; format: in vivo
Procedure: as §1, with “Chamber temperature was maintained at 30.1±0.1° C. in accordance with the documented thermoneutral range for neonatal mice by immersing the chamber in a thermostat-controlled water bath (49).” left out, “(6).” for “(6). 95% of gas exchange occurred within 35 s of administration, which was verified by CO2 content analyses (Metek CD-3A and S-3A, PA, USA).”
(§6) Each mouse received an intraperitoneal injection (0.01 ml/g) of IL-1β (10 μg/kg) or vehicle. At 70 min, the mouse was placed unrestrained into the plethysmograph chamber. Respiration was assessed during 4 min of normoxia (21% O2) followed by 1 min of hyperoxia (100% O2). After a 5 min recovery period in normoxia, the respiratory response to anoxia (100% N2) was examined. Finally, 100% O2 was administered for 8 min, and the ability to autoresuscitate was evaluated. Skin temperature was recorded at baseline, at 70 min, and after removal from the chamber. Rectal temperature was not measured as rectal probe placement may alter respiratory behavior. The anogenital distance was measured to approximate gender.
as §3
(§7) As there is a variable response to anoxia based upon age (53), we attempted to perform all recordings at age P9; however, in an effort to minimize confounding age-related effects, weight was used as a correlate of age and only animals with weights within 1 SD of the population mean weight were included in the anoxia and survival analyses (6).

mPGES-1^−/− mice = assay: Whole-body flow plethysmography after i.p. IL-1β, mPGES-1−/− mice; format: in vivo
Procedure: as §1, with “Chamber temperature was maintained at 30.1±0.1° C. in accordance with the documented thermoneutral range for neonatal mice by immersing the chamber in a thermostat-controlled water bath (49).” left out, “(6).” for “(6). 95% of gas exchange occurred within 35 s of administration, which was verified by CO2 content analyses (Metek CD-3A and S-3A, PA, USA).”
as §6, §3, §7

EP3R^−/− mice [6] = assay: Whole-body flow plethysmography after i.p. IL-1β, EP3R−/− mice; format: in vivo
Procedure: as §1, with “Chamber temperature was maintained at 30.1±0.1° C. in accordance with the documented thermoneutral range for neonatal mice by immersing the chamber in a thermostat-controlled water bath (49).” left out, “(6).” for “(6). 95% of gas exchange occurred within 35 s of administration, which was verified by CO2 content analyses (Metek CD-3A and S-3A, PA, USA).”
as §6
as §3, with “periods). […]” for “periods).”

mPGES-1 = mPGES-1 activity in brain membrane fraction after IL-1β; format: in vivo, mice
Procedure: Newborn mouse brains (n=33) were homogenized in 0.1M KPi (potassium inorganic phosphate) buffer containing 0.25M sucrose, 1× complete protease inhibitor (Roche Diagnostics) and 1 mM reduced glutathione followed by sonication. Membrane fraction was isolated by subcellular fractionation. mPGES-1 activity was measured in the membrane fraction as described previously (52, the disclosure of which is expressly incorporated herein by reference).

[7] = 9 d-old EP3R+/+ mice, PGE2 icv, hyperoxia (100% O2)
[8] = 9 d-old EP3R+/+ mice, PGE2 icv, normoxia
[9] = 9 d-old EP3R−/− mice, PGE2 icv, hyperoxia (100% O2)
[10] = 9 d-old EP3R−/− mice, PGE2 icv, normoxia
[11] = 9 d-old mPGES-1+/+ mice, IL-1β i.p., hyperoxia (100% O2)
[12] = 9 d-old mPGES-1+/+ mice, IL-1β i.p., normoxia
[13] = mPGES-1+/+ mice, anoxia at 80 min after IL-1β
[14] = 9 d-old mPGES-1−/− mice, IL-1β i.p., hyperoxia (100% O2)
[15] = 9 d-old mPGES-1−/− mice, IL-1β i.p., normoxia
[16] = mPGES-1−/− mice, anoxia at 80 min after IL-1β
[17] = EP3R wildtype mice, 90 min after IL-1β

## CCCCC/C=C\C\C=C/C=C/C=C/[C@@H](SC[C@H](NC(=O)CC[C@H](N)C(=O)O)C(=O)NCC(=O)O)[C@@H](O)CCCC(=O)O [leukotriene C4]
mPGES-1 enzyme
  IC50: 5 µM

## COc1ccc2c(c1)c(CC(=O)O)c(C)n2C(=O)c1ccc(Cl)cc1 [indomethacin]
[1]
  effect on respiratory depression induced by IL-1β: attenuates the respiratory depression
[1]; neonatal rats
  effect on adverse effects of IL-1β on hypoxic gasping and anoxic survival: attenuates the adverse effects

## CCCCC[C@H](O)/C=C/[C@H]1[C@H](O)CC(=O)[C@@H]1C/C=C\CCCC(=O)O [PGE2, Prostaglandin E2]
EP3R^+/+ mice; 9 d-old EP3R+/+ mice, PGE2 4 nmol icv, normoxia
  fR, normoxia: 247 ± 13 breaths/min
EP3R^+/+ mice; 9 d-old EP3R+/+ mice, PGE2 icv, anoxia (100% N2)
  Hyperpnea fR: 267 ± 11 breaths/min
EP3R^+/+ mice; [7]
  VE, hyperoxia: 745 ± 102 µL/min/g
  VT, hyperoxia: 4.4 ± 1.1 μl/br/g
  fR, hyperoxia: 190 ± 16 breaths/min
EP3R^+/+ mice; [8]
  VE, normoxia: 901 ± 154 µL/min/g
  VT, normoxia: 3.7 ± 0.4 μl/br/g
EP3R^+/+ mice; EP3R+/+ mice, PGE2 icv, compared to vehicle
  gasping response and anoxic survival: did not alter the gasping response or anoxic survival
EP3R^+/+ mice; EP3R+/+ mice, PGE2 icv, normoxia and hyperoxia, vs vehicle
  apnea frequency and breathing pattern: induced a significantly greater apnea frequency and irregular breathing pattern
EP3R^−/− mice [2]; 9 d-old EP3R−/− mice, PGE2 4 nmol icv, normoxia
  fR, normoxia: 256 ± 10 breaths/min
EP3R^−/− mice [2]; 9 d-old EP3R−/− mice, PGE2 icv, anoxia (100% N2)
  Hyperpnea fR: 290 ± 9 breaths/min
EP3R^−/− mice [2]; [9]
  VE, hyperoxia: 1509 ± 299 µL/min/g
  VT, hyperoxia: 6.7 ± 1.3 μl/br/g
  fR, hyperoxia: 229 ± 9 breaths/min
EP3R^−/− mice [2]; [10]
  VE, normoxia: 1350 ± 129 µL/min/g
  VT, normoxia: 5.2 ± 0.5 μl/br/g
EP3R^−/− mice [2]; EP3R−/− mice, PGE2 icv, compared to vehicle
  gasping response and anoxic survival: did not alter the gasping response or anoxic survival
EP3R^−/− mice [2]; EP3R−/− mice, PGE2 icv, normoxia and hyperoxia, vs vehicle
  induction of apneas: not observed
[3]
  respiratory rhythm generation, relative to control frequency (fR): 64±5 % of control frequency
[4]
  effect on respiratory activity: did not affect respiratory activity
[5]
  half-life of PGE2: 12 to 18 h

## CSc1ccc(/C=C2/C(C)=C(CC(=O)O)c3cc(F)ccc32)cc1 [sulindac sulfide]
mPGES-1 enzyme
  IC50: 80 µM

B1: IL-1β: Recombinant mouse interleukin-1β (Nordic Biosite AB), pro-inflammatory cytokine given i.p. to neonatal mice (protein, UniProt P10749 118-269, looked up)
Interleukin-1 beta: VPIRQLHYRLRDEQQKSLVLSDPYELKALHLNGQNINQQVIFSMSFVQGEPSNDKIPVALGLKGKNLYLSCVMKDGTPTLQLESVDPKQYPKKKMEKRFVFNKIEVKSKVEFESAEFPNWYISTSQAEHKPVFLGNNSGQDIIDFTMESVSS
mPGES-1^+/+ mice; 9 d-old mPGES-1+/+ mice, IL-1β 10 μg/kg i.p., normoxia, mean±SEM
  fR, normoxia: 224 ± 5 breaths/min
mPGES-1^+/+ mice; [11]
  VE, hyperoxia: 628 ± 43 µL/min/g
  VT, hyperoxia: 3.9 ± 0.2 μl/br/g
  fR, hyperoxia: 155 ± 7 breaths/min
mPGES-1^+/+ mice; [12]
  VE, normoxia: 730 ± 38 µL/min/g
  VT, normoxia: 3.2 ± 0.2 μl/br/g
mPGES-1^+/+ mice; mPGES-1+/+ mice, 5 min anoxia at 80 min after IL-1β i.p.
  anoxic survival: significantly reduced anoxic survival
mPGES-1^+/+ mice; mPGES-1+/+ mice, anoxia (100% N2) at 80 min after IL-1β
  Hyperpnea fR: 390 ± 11 breaths/min
mPGES-1^+/+ mice; [13]
  Gasping Response Duration: 82 ± 7
  Gasping Response Gasp #: 30 ± 2
  Gasping Response Gasp fR: 23 ± 1
  Hyperpnea Duration: 61 ± 2
mPGES-1^−/− mice; [14]
  VE, hyperoxia: 795 ± 67 µL/min/g
  VT, hyperoxia: 3.9 ± 0.3 μl/br/g
  fR, hyperoxia: 206 ± 11 breaths/min
mPGES-1^−/− mice; [15]
  VE, normoxia: 660 ± 41 µL/min/g
  VT, normoxia: 2.7 ± 0.1 μl/br/g
  fR, normoxia: 245 ± 7 breaths/min
mPGES-1^−/− mice; mPGES-1−/− mice, anoxia (100% N2) at 80 min after IL-1β
  Hyperpnea fR: 338 ± 24 breaths/min
mPGES-1^−/− mice; [16]
  Gasping Response Duration: 146 ± 23
  Gasping Response Gasp #: 36 ± 3
  Gasping Response Gasp fR: 18 ± 2
  Hyperpnea Duration: 57 ± 2
mPGES-1^−/− mice; mice lacking mPGES-1, 5 min anoxia at 80 min after IL-1β i.p.
  anoxic survival: did not decrease survival
EP3R^−/− mice [6]; EP3R−/− mice, IL-1β i.p.
  hypoxic ventilatory response: unable to affect the hypoxic ventilatory response
  ventilation during normoxia or hyperoxia: did not alter ventilation
EP3R^−/− mice [6]; mice lacking EP3R, 5 min anoxia at 80 min after IL-1β i.p.
  anoxic survival: did not decrease survival
mPGES-1; [17]
  mPGES-1 activity (PGE2), brainstem: 1111±49 pmol/min/mg protein
  mPGES-1 activity (PGE2), cortex: 710±44 pmol/min/mg protein
mPGES-1; IL-1β-treated mice exposed to anoxia (100% N2, 5 min)
  brainstem mPGES-1 activity compared to control mice: four-times higher activity
mPGES-1; between 90 and 180 min after IL-1β
  cortex mPGES-1 activity: remained unchanged
mPGES-1; mice with genetic deletion of mPGES-1 gene, IL-1β and anoxia
  mPGES-1 activity: negligible activity
mPGES-1; wildtype mice, 90 min after IL-1β
  brainstem mPGES-1 activity compared to saline-treated mice: approximately two-fold higher activity
mPGES-1; wildtype mice, 180 min after IL-1β
  increase in brainstem mPGES-1 activity: four-fold increase
